Assay results reported in the supplement of paper PMC10065799, “High-throughput profiling of sequence recognition by tyrosine kinases and SH2 domains using bacterial peptide display” (eLife, 2023).

Assays:
[1] = system: AncSZ; assay: phosphorylation enrichment, bacterial display (enrichment ratio); higher = better substrate or ligand; peptides without Tyr show the background
[2] = target: EPHB1 (UniProt P54762); assay: as above
[3] = target: EPHB2 (UniProt P29323); assay: as above
[4] = target: FGFR1 (UniProt P11362); assay: as above
[5] = target: FGFR3 (UniProt P22607); assay: as above
Chain of FGFR3 (P22607 whole entry, looked up): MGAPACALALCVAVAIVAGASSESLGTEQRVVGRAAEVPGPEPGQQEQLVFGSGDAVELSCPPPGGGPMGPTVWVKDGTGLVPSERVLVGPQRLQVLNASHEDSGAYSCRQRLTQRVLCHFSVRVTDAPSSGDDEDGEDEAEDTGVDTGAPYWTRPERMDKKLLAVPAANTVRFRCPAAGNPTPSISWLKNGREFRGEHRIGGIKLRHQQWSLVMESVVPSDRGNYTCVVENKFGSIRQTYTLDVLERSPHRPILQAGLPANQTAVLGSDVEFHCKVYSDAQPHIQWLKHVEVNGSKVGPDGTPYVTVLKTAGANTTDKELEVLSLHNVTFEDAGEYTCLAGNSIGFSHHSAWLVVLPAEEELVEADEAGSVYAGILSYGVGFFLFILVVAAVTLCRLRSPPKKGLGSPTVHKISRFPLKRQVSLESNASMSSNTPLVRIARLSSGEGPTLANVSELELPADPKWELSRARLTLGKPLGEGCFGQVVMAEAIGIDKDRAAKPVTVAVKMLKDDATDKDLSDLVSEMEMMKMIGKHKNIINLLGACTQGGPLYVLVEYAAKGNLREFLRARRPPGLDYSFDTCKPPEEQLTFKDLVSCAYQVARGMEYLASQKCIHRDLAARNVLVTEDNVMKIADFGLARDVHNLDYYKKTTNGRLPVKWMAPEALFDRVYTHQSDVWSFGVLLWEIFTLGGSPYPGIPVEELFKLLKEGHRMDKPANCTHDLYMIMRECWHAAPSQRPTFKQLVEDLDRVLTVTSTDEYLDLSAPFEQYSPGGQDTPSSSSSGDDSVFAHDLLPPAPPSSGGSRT

[6] = system: Fer (mouse); assay: as above
[7] = target: Fes (UniProt P07332); assay: as above
[8] = target: Fyn (UniProt P06241); assay: as above
Chain of Fyn (P06241 whole entry, looked up): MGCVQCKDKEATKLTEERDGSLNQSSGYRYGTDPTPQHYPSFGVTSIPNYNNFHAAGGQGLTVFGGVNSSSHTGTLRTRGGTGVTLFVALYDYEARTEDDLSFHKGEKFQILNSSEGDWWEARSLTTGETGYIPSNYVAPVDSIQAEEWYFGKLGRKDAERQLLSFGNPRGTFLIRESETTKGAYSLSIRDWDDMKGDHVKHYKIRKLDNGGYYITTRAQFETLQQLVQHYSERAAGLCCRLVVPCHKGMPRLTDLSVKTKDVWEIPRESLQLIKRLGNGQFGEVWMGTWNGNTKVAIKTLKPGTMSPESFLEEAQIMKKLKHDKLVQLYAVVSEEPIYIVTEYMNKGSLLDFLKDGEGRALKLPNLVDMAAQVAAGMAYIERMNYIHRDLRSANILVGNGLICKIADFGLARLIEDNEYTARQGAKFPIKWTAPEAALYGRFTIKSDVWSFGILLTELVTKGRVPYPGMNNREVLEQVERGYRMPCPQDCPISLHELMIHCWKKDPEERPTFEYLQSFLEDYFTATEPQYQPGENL

[9] = target: Hck (UniProt P08631); assay: as above
Chain of Hck (P08631 whole entry, looked up): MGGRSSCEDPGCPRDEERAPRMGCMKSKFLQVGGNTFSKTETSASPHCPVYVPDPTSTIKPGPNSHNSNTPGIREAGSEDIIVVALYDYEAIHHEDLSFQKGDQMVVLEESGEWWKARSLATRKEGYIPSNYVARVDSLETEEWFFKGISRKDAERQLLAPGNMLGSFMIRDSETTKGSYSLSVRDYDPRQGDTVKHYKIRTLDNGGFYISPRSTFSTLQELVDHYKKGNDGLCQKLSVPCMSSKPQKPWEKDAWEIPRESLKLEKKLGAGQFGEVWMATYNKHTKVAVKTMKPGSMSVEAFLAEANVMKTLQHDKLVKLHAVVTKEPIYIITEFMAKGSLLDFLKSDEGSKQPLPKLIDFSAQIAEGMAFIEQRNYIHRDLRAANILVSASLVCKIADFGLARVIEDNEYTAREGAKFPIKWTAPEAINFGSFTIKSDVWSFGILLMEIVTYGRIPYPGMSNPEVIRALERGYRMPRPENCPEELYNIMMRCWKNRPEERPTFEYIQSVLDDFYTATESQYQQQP

[10] = target: Jak2 (UniProt O60674); assay: as above
Chain of Jak2 (O60674 whole entry, looked up): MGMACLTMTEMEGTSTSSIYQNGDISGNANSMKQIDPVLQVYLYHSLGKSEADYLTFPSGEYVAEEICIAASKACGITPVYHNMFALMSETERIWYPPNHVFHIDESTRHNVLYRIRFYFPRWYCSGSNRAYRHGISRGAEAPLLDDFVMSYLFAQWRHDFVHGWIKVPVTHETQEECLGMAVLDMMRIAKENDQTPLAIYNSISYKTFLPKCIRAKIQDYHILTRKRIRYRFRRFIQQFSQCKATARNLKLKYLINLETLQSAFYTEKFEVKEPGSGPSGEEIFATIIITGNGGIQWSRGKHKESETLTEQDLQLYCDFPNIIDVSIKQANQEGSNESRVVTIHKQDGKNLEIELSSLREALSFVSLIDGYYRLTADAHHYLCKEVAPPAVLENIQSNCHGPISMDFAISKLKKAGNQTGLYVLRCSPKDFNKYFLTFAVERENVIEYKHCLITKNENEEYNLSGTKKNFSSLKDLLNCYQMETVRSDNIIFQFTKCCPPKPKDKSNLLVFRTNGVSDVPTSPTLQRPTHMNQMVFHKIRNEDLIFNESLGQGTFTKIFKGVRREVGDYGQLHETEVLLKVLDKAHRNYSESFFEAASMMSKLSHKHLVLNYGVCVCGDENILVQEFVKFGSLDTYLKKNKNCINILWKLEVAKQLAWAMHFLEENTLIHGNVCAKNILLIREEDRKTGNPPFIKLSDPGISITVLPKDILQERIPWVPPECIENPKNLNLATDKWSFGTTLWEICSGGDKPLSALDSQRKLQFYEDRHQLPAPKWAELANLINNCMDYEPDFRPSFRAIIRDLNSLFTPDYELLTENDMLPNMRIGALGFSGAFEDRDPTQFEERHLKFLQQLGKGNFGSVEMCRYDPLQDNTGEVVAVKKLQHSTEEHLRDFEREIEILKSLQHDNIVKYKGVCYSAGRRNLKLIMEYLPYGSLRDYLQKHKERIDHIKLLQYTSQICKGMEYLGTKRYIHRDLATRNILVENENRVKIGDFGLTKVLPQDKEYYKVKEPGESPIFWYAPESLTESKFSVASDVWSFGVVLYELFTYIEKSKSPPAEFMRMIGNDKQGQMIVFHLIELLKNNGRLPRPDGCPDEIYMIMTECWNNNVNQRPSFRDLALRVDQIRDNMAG

[11] = target: MERTK (UniProt Q12866); assay: as above
[12] = system: c-Abl (mouse); assay: as above
[13] = system: c-Src; assay: as above
[14] = target: Grb2 SH2 (UniProt P62993); assay: SH2 binding enrichment of the phosphorylated peptide, bacterial display (enrichment ratio); higher = better substrate or ligand; peptides without Tyr show the background
[15] = target: SHP2-C SH2; assay: as above
[16] = target: c-Src SH2; assay: as above
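Throughout, for SH2 binding enrichment of the phosphorylated peptide, bacterial display: peptide library displayed on the E. coli surface as eCPX fusions, selected cells deep-sequenced, score is each peptide's frequency after selection divided by its frequency in the input.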
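Throughout, for phosphorylation enrichment, bacterial display: 11-residue human phosphosite peptides and single-mutation variants displayed on the E. coli surface, counted by deep sequencing, each peptide's frequency after selection divided by its frequency in the unselected input library; frequency after pTyr selection over input frequency; kinase dosed for 20-30% of maximal phosphorylation in three min.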

Chain of EPHB2 (P29323 whole entry, looked up): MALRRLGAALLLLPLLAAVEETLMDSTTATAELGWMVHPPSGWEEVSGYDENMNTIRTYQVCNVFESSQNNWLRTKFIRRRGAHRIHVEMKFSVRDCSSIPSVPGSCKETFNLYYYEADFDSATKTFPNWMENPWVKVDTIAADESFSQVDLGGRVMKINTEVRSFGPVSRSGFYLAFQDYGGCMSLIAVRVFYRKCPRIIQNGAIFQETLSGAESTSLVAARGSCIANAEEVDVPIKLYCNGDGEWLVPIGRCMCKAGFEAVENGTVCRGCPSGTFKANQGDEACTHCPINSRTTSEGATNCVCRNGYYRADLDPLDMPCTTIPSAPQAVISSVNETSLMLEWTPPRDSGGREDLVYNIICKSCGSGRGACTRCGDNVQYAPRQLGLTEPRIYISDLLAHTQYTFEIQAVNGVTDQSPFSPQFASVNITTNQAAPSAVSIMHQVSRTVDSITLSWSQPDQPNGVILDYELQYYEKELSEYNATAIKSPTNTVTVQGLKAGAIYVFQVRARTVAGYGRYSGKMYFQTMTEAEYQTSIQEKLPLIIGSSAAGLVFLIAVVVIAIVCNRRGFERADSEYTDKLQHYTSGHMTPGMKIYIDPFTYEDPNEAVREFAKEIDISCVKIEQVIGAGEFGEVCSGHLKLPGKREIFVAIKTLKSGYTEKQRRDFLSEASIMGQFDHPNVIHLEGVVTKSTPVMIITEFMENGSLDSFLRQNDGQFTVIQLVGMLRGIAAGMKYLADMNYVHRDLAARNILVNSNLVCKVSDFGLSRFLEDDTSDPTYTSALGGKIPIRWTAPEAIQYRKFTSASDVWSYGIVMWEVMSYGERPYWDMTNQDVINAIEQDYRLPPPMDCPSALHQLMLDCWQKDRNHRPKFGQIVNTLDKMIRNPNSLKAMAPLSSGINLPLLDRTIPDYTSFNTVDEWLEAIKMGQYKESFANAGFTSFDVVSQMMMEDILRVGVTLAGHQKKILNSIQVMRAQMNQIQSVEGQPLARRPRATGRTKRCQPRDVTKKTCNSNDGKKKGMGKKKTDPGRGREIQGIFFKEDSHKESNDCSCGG
Chain of EPHB1 (P54762 whole entry, looked up): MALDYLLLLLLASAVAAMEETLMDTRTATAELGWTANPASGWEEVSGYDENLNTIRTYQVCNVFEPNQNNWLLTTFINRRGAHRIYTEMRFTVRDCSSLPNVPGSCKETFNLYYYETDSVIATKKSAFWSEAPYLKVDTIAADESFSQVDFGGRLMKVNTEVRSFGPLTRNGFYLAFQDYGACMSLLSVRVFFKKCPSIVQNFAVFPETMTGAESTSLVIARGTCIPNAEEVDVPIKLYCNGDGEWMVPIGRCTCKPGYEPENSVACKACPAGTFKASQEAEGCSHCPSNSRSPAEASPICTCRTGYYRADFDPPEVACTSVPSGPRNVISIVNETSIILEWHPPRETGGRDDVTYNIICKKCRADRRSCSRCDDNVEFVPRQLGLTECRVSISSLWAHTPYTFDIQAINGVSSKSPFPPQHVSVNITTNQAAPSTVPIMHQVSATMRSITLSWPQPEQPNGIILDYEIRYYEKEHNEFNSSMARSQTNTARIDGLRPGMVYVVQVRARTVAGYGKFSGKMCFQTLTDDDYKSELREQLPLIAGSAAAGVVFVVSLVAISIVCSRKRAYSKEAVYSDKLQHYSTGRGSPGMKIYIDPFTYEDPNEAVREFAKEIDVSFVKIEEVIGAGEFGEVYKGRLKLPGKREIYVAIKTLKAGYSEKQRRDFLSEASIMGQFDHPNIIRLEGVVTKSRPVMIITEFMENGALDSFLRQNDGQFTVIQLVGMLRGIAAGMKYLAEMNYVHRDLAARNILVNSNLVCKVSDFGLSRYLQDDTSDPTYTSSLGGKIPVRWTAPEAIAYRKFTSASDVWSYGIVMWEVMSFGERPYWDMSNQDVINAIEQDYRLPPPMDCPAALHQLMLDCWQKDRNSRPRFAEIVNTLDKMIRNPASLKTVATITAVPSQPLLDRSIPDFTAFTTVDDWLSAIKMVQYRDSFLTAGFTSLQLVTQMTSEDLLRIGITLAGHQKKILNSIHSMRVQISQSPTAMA

Sequence | phosphorylation enrichment [1] | phosphorylation enrichment [2] | phosphorylation enrichment [3] | phosphorylation enrichment [4] | phosphorylation enrichment [5] | phosphorylation enrichment [6] | phosphorylation enrichment [7] | phosphorylation enrichment [8] | phosphorylation enrichment [9] | phosphorylation enrichment [10] | phosphorylation enrichment [11] | phosphorylation enrichment [12] | phosphorylation enrichment [13] | SH2 binding enrichment [14] | SH2 binding enrichment [15] | SH2 binding enrichment [16]
NACGLYHTMNG [GATA5_Y216_K218T] | 0.959 | 0.934 | 0.849 | 2.47 | 1.79 | 0.643 | 0.95 | 0.865 | 2.21 | 0.956 | 3.18 | 0.746 | 3.06 | 0.849 | 0.589 | 4.06
NAPNSYGRRPI [CDKN2A_Y44] | 1.23 | 0.581 | 1.21 | 0.692 | 0.81 | 1.2 | 0.952 | 0.678 | 0.757 | 0.76 | 0.713 | 0.885 | 0.75 | 0.726 | 0.799 | 0.392
NDKLCYEVSSP [CDH13_Y66_R65C] | 1.52 | 0.677 | 0.724 | 0.514 | 0.876 | 0.883 | 1.53 | 0.562 | 0.548 | 1 | 0.394 | 0.837 | 0.596 | 0.569 | 0.498 | 0.413
NFDLDYDSVQP [MYC_Y16_YF] | 2 | 1.28 | 0.923 | 0.573 | 0.608 | 0.591 | 0.974 | 0.572 | 0.575 | 1.06 | 0.458 | 0.68 | 0.814 | 0.872 | 0.898 | 0.595
NFFEFYVDDPP [GCHFR_Y48_YF] | 1.44 | 0.704 | 0.621 | 0.741 | 0.925 | 0.557 | 1.28 | 0.569 | 0.499 | 1.12 | 0.531 | 0.836 | 0.575 | 0.978 | 0.594 | 0.533
NFHRGYHLQVL [CD200R1L_Y138] | 0.755 | 0.483 | 0.475 | 0.453 | 0.606 | 0.478 | 0.835 | 0.5 | 0.375 | 0.54 | 0.351 | 0.787 | 0.353 | 0.963 | 0.827 | 0.54
NFRTTYVNANE [KCNH2_Y475] | 0.892 | 0.404 | 0.464 | 0.498 | 0.719 | 0.551 | 1.27 | 0.444 | 0.558 | 1.29 | 0.482 | 0.61 | 0.589 | 15.1 | 1.48 | 2.03
NGEDLYAGSTD [XRCC1_Y515_P514L] | 1.17 | 0.517 | 0.541 | 0.489 | 0.613 | 0.52 | 1.05 | 0.66 | 0.886 | 1.02 | 0.446 | 0.743 | 0.807 | 0.834 | 0.555 | 0.469
NGRQCYSCKGN [PLAUR_Y217] | 0.481 | 0.266 | 0.336 | 0.381 | 0.341 | 0.377 | 0.456 | 0.324 | 0.336 | 0.574 | 0.379 | 0.416 | 0.346 | 0.959 | 0.908 | 1.01
NIEPVYLNMLL [ATR_Y317] | 1.58 | 6.94 | 5.01 | 8.65 | 5.81 | 10.5 | 1.48 | 6.88 | 5.48 | 1.36 | 3.46 | 4.49 | 6.42 | 0.836 | 1.04 | 0.402
NKEPRYQEDPP [TJP2_Y479] | 0.852 | 0.525 | 0.607 | 0.625 | 0.823 | 0.59 | 0.999 | 0.693 | 0.546 | 0.832 | 0.508 | 0.48 | 0.461 | 1.43 | 0.822 | 0.78
NLNGKYFKPRA [ANGPTL3_Y417_N418Y_YF] | 0.646 | 0.538 | 0.365 | 0.363 | 0.383 | 0.297 | 0.56 | 0.335 | 0.367 | 0.543 | 0.389 | 0.469 | 0.43 | 1.21 | 1.16 | 0.961
NNHGNYIVRLG [ETFDH_Y172] | 0.619 | 0.548 | 0.563 | 0.456 | 0.595 | 0.438 | 0.723 | 0.5 | 0.481 | 0.702 | 0.416 | 0.667 | 0.547 | 0.889 | 0.991 | 0.781
NNIDFYKNTTN [FGFR2_Y657_K659N_YF] | 0.746 | 0.484 | 0.389 | 0.442 | 0.609 | 0.448 | 0.792 | 0.472 | 0.553 | 0.574 | 0.352 | 0.57 | 0.369 | 0.804 | 0.611 | 0.434
NQILPYIKELV [PPP2R1B_Y341] | 1.01 | 0.509 | 0.611 | 0.579 | 0.774 | 0.528 | 1.14 | 0.43 | 0.52 | 1.08 | 0.456 | 0.72 | 0.477 | 1.01 | 0.684 | 0.55
NQKGKYFNVER [ANAPC4_Y469_R465Q] | 0.614 | 0.353 | 0.372 | 0.361 | 0.469 | 0.39 | 0.603 | 0.462 | 0.449 | 0.489 | 0.373 | 0.588 | 0.386 | 1.15 | 1.03 | 0.667
NRDNTYNPVSE [FGA_Y127_R129P] | 0.751 | 0.544 | 0.465 | 0.457 | 0.627 | 0.481 | 0.857 | 0.562 | 0.658 | 0.699 | 0.486 | 0.545 | 0.522 | 0.694 | 0.443 | 0.425

Sequence | phosphorylation enrichment [1] | phosphorylation enrichment [2] | phosphorylation enrichment [3] | phosphorylation enrichment [4] | phosphorylation enrichment [5] | phosphorylation enrichment [6] | phosphorylation enrichment [7] | phosphorylation enrichment [8] | phosphorylation enrichment [9] | phosphorylation enrichment [10] | phosphorylation enrichment [11] | phosphorylation enrichment [12] | phosphorylation enrichment [13] | SH2 binding enrichment [14] | SH2 binding enrichment [15] | SH2 binding enrichment [16]
NSGFFYKTAEE [CCT6B_Y250] | 1.31 | 0.655 | 0.722 | 0.556 | 0.74 | 0.486 | 1.41 | 0.462 | 0.445 | 1.44 | 0.435 | 0.888 | 0.476 | 0.734 | 0.586 | 0.546
NTEGGYRCICA [CRELD1_Y328] | 0.976 | 0.496 | 0.644 | 0.668 | 0.636 | 0.498 | 1.02 | 0.511 | 0.538 | 0.869 | 0.484 | 0.947 | 0.465 | 0.97 | 0.489 | 0.465
NTFENYWPFFQ [GATM_Y103_K102N_YF] | 1.34 | 9.64 | 5.8 | 12.4 | 10.5 | 0.894 | 1.18 | 3.18 | 5.44 | 3.43 | 5.46 | 1.22 | 4.41 | 1.06 | 0.949 | 0.651
NTGDYYDLYGG [PTPN11_Y63] | 4.64 | 13 | 14.4 | 14.7 | 13.8 | 1.59 | 1.13 | 5.18 | 5.35 | 4.07 | 4.18 | 1.02 | 5 | 1.02 | 0.939 | 0.687
NTYEKYWPFYQ [GATM_Y103] | 1.41 | 6.55 | 8.15 | 2.76 | 1.89 | 1.92 | 2.3 | 5.72 | 4.39 | 1.93 | 5.5 | 1.17 | 5 | 1.14 | 0.762 | 1.24
NVADHYGVYKP [ATP6V0D2_Y271] | 0.571 | 0.401 | 0.391 | 0.461 | 0.451 | 0.424 | 0.645 | 5.55 | 3.71 | 0.517 | 0.356 | 0.587 | 4.89 | 0.917 | 0.647 | 0.597
NVFGNYNNQSS [HNRNPA1_Y318_D314V] | 0.475 | 0.421 | 0.467 | 0.399 | 0.546 | 0.448 | 0.537 | 0.315 | 0.424 | 0.489 | 0.289 | 0.352 | 0.293 | 0.78 | 0.508 | 0.397
NYCPGYNNFYN [USH2A_Y467_R464C] | 0.988 | 0.888 | 0.753 | 0.638 | 0.791 | 0.588 | 1.06 | 0.64 | 0.613 | 1.12 | 0.566 | 0.761 | 1.26 | 1.68 | 0.821 | 2.35
NYYDTYIKTCL [IQGAP2_Y1445] | 1.93 | 5.9 | 5.75 | 7.55 | 5.88 | 1.1 | 1.25 | 3.03 | 2.38 | 1.5 | 3.49 | 0.928 | 2.34 | 0.841 | 0.595 | 0.401
PAIYTYDEYKK [COL8A2_Y648_T645I] | 1.93 | 3.61 | 3.29 | 2.04 | 2.2 | 9.34 | 1.95 | 18.6 | 8.13 | 1.27 | 13.5 | 1.04 | 9.14 | 0.778 | 0.513 | 2.29
PAKPRYRARQR [KCNJ11_Y26_E23K] | 1.08 | 0.774 | 1.06 | 0.671 | 0.642 | 0.767 | 0.877 | 0.813 | 0.819 | 0.955 | 0.935 | 0.818 | 0.763 | 0.654 | 0.399 | 0.418
PARLEYCENEK [IRS1_Y46_Y47C] | 1.75 | 0.947 | 0.823 | 0.809 | 1.16 | 0.816 | 1.74 | 1.12 | 1.04 | 1.76 | 0.762 | 1.08 | 1.05 | 0.909 | 1.21 | 1.26
PCPANYFAFKI [FAM3D_Y65] | 2.11 | 6.38 | 3.72 | 9.03 | 7.65 | 1.12 | 2.29 | 1.14 | 1.34 | 8.15 | 12.1 | 7.14 | 4.44 | 1.03 | 0.69 | 0.594
PEAALYGRFTI [FYN_Y440] | 0.875 | 0.59 | 0.514 | 0.646 | 0.645 | 1.67 | 1.11 | 7.72 | 6.52 | 1.38 | 1.9 | 2.83 | 6.87 | 0.694 | 0.757 | 0.418
PEACDYGLGGG [GSTO1_Y239] | 1.78 | 1.38 | 0.887 | 1.19 | 0.816 | 0.656 | 1.34 | 0.691 | 0.739 | 1.11 | 0.635 | 1.28 | 1.19 | 0.912 | 0.559 | 0.693
PEADKYCLTFA [FGG_Y300_R301C_YF] | 1.33 | 0.685 | 0.7 | 0.664 | 1.21 | 0.72 | 1.96 | 0.76 | 1.5 | 1.71 | 0.758 | 1.32 | 0.683 | 0.757 | 0.606 | 0.498
